Our source for the abundance fitness values is the Human Domainome abundance scans (Beltran et al. 2025).

± gives the uncertainty stated by the source.

The data set in a line: abundance fitness (aPCA) (normalised: wild type 0, dead -1); higher = more abundant; growth selection in yeast, the domain comes from the species named. The settings on record: Homo sapiens.
“BAG family molecular chaperone regulator 3 R45F, O95817” returned an abundance fitness of -0.4 ± 0.087. With “BAG family molecular chaperone regulator 3 R45G, O95817”, the abundance fitness was -0.087 ± 0.085. Next, “BAG family molecular chaperone regulator 3 R45H, O95817”: 0.367 ± 0.25. Next, “BAG family molecular chaperone regulator 3 R45K, O95817”: -0.043 ± 0.077; “BAG family molecular chaperone regulator 3 R45L, O95817”: -0.594 ± 0.18. For “BAG family molecular chaperone regulator 3 R45M, O95817” the value was -0.442 ± 0.2; for “BAG family molecular chaperone regulator 3 R45N, O95817”, 0.54 ± 0.18.

Consider “BAG family molecular chaperone regulator 3 R45P, O95817”, for which the abundance fitness is -0.321 ± 0.35. Next, “BAG family molecular chaperone regulator 3 R45Q, O95817”: 0.541 ± 0.17.

As to “BAG family molecular chaperone regulator 3 R45S, O95817”, the abundance fitness is -0.354 ± 0.084. For “BAG family molecular chaperone regulator 3 R45T, O95817” the value was -0.409 ± 0.28; for “BAG family molecular chaperone regulator 3 R45V, O95817”, -0.692 ± 0.091; for “BAG family molecular chaperone regulator 3 R45W, O95817”, -0.843 ± 0.18.

Substance “BAG family molecular chaperone regulator 3 R45Y, O95817” had an abundance fitness of -0.229 ± 0.22.

On to “BAG family molecular chaperone regulator 3 R53A, O95817”, for which the abundance fitness was -0.422 ± 0.14. “BAG family molecular chaperone regulator 3 R53C, O95817” registered an abundance fitness of -0.551 ± 0.23. For “BAG family molecular chaperone regulator 3 R53D, O95817” the value was -0.822 ± 0.49. For “BAG family molecular chaperone regulator 3 R53E, O95817” the value was -0.646 ± 0.14; for “BAG family molecular chaperone regulator 3 R53G, O95817”, -0.295 ± 0.09; for “BAG family molecular chaperone regulator 3 R53H, O95817”, -0.611 ± 0.3. For “BAG family molecular chaperone regulator 3 R53K, O95817” the value was -0.424 ± 0.28; for “BAG family molecular chaperone regulator 3 R53L, O95817”, -0.732 ± 0.09. As for “BAG family molecular chaperone regulator 3 R53M, O95817”, the abundance fitness was -0.296 ± 0.25. For “BAG family molecular chaperone regulator 3 R53N, O95817” the value was -0.257 ± 0.44; for “BAG family molecular chaperone regulator 3 R53P, O95817”, -0.653 ± 0.083; for “BAG family molecular chaperone regulator 3 R53S, O95817”, -0.523 ± 0.18.

“BAG family molecular chaperone regulator 3 R53T, O95817”: the abundance fitness was -0.225 ± 0.25. Consider “BAG family molecular chaperone regulator 3 R53V, O95817”, for which the abundance fitness was -0.715 ± 0.22. Next, “BAG family molecular chaperone regulator 3 R53W, O95817”: -0.861 ± 0.14; “BAG family molecular chaperone regulator 3 R53Y, O95817”: -0.788 ± 0.14; “BAG family molecular chaperone regulator 3 S14A, O95817”: -0.285 ± 0.14. Next, “BAG family molecular chaperone regulator 3 S14C, O95817”: -0.542 ± 0.42; “BAG family molecular chaperone regulator 3 S14D, O95817”: 0.102 ± 0.14; “BAG family molecular chaperone regulator 3 S14E, O95817”: 0.233 ± 0.085. In the case of “BAG family molecular chaperone regulator 3 S14F, O95817”, the abundance fitness is -0.528 ± 0.28. For “BAG family molecular chaperone regulator 3 S14G, O95817”, the abundance fitness is -0.641 ± 0.1. For “BAG family molecular chaperone regulator 3 S14H, O95817” the value was 0.623 ± 0.12; for “BAG family molecular chaperone regulator 3 S14I, O95817”, 0.059 ± 0.23. Next, “BAG family molecular chaperone regulator 3 S14K, O95817”: 0.023 ± 0.28; “BAG family molecular chaperone regulator 3 S14L, O95817”: 0.091 ± 0.11.

In the case of “BAG family molecular chaperone regulator 3 S14M, O95817”, the abundance fitness is -0.022 ± 0.2.

“BAG family molecular chaperone regulator 3 S14N, O95817” had an abundance fitness of -0.156 ± 0.17. For “BAG family molecular chaperone regulator 3 S14P, O95817” the value was -0.269 ± 0.19; for “BAG family molecular chaperone regulator 3 S14Q, O95817”, 0.677 ± 0.15; for “BAG family molecular chaperone regulator 3 S14T, O95817”, -0.084 ± 0.19.

“BAG family molecular chaperone regulator 3 S14V, O95817” came in with an abundance fitness of -0.219 ± 0.14. In the case of “BAG family molecular chaperone regulator 3 S14W, O95817”, the abundance fitness is -0.576 ± 0.23. Next, “BAG family molecular chaperone regulator 3 S14Y, O95817”: -0.113 ± 0.15; “BAG family molecular chaperone regulator 3 S44C, O95817”: -0.688 ± 0.31; “BAG family molecular chaperone regulator 3 S44D, O95817”: -0.557 ± 0.47. For “BAG family molecular chaperone regulator 3 S44E, O95817” the value was -0.489 ± 0.17; for “BAG family molecular chaperone regulator 3 S44F, O95817”, -0.682 ± 0.29. For “BAG family molecular chaperone regulator 3 S44G, O95817” the value was -0.483 ± 0.11; for “BAG family molecular chaperone regulator 3 S44H, O95817”, -0.481 ± 0.37. Substance “BAG family molecular chaperone regulator 3 S44K, O95817” showed an abundance fitness of -0.7 ± 0.43. “BAG family molecular chaperone regulator 3 S44L, O95817” came in with an abundance fitness of -0.246 ± 0.17. Regarding “BAG family molecular chaperone regulator 3 S44M, O95817”, the abundance fitness is -0.371 ± 0.15.

“BAG family molecular chaperone regulator 3 S44N, O95817” had an abundance fitness of -0.035 ± 0.25. Next, “BAG family molecular chaperone regulator 3 S44Q, O95817”: -0.44 ± 0.29; “BAG family molecular chaperone regulator 3 S44R, O95817”: -0.335 ± 0.08; “BAG family molecular chaperone regulator 3 S44T, O95817”: 0.209 ± 0.11. For “BAG family molecular chaperone regulator 3 S44W, O95817” the value was -0.86 ± 0.17; for “BAG family molecular chaperone regulator 3 S44Y, O95817”, -0.485 ± 0.39; for “BAG family molecular chaperone regulator 3 S56A, O95817”, -0.146 ± 0.12.

In turn, “BAG family molecular chaperone regulator 3 S56C, O95817” came in with an abundance fitness of -0.13 ± 0.18. For “BAG family molecular chaperone regulator 3 S56E, O95817” the value was -0.24 ± 0.25; for “BAG family molecular chaperone regulator 3 S56F, O95817”, -0.205 ± 0.13; for “BAG family molecular chaperone regulator 3 S56G, O95817”, -0.011 ± 0.063. Next, “BAG family molecular chaperone regulator 3 S56H, O95817”: -0.411 ± 0.37. Next, “BAG family molecular chaperone regulator 3 S56I, O95817”: 0.304 ± 0.1; “BAG family molecular chaperone regulator 3 S56K, O95817”: -0.136 ± 0.29.

Regarding “BAG family molecular chaperone regulator 3 S56L, O95817”, the abundance fitness was -0.125 ± 0.14.

Regarding “BAG family molecular chaperone regulator 3 S56M, O95817”, the abundance fitness amounted to 0.083 ± 0.12.

For “BAG family molecular chaperone regulator 3 S56N, O95817”, the abundance fitness turned out to be 0.103 ± 0.19. For “BAG family molecular chaperone regulator 3 S56P, O95817” the value was -0.572 ± 0.27; for “BAG family molecular chaperone regulator 3 S56R, O95817”, 0.007 ± 0.063.

Turning to “BAG family molecular chaperone regulator 3 S56T, O95817”, the abundance fitness turned out to be 0.208 ± 0.16. “BAG family molecular chaperone regulator 3 S56V, O95817” yielded an abundance fitness of 0.08 ± 0.1.

“BAG family molecular chaperone regulator 3 S56W, O95817” showed an abundance fitness of -0.473 ± 0.13. Next, “BAG family molecular chaperone regulator 3 S56Y, O95817”: 0.376 ± 0.3; “BAG family molecular chaperone regulator 3 T34A, O95817”: 0.131 ± 0.12.
